# Results as given in article PMC8397727, “The structure of the bacterial DNA segregation ATPase filament reveals the conformational plasticity of ParA upon DNA binding” (Nature Communications, 2021).
# Biological target: Vibrio cholerae chromosome 2 ParA (ParA2vc) (Vibrio cholerae)
# Experiment: negative-stain EM; ParA2vc 1 mg/ml with or without 3.5 mM nucleotide and MgCl2, 30 °C 15 min, diluted 1/100 in 100 mM NaCl, 50 mM Tris pH 7.5; no DNA; 2D classification of particles; monomers to dimer
substance,measurement,value
Vibrio cholerae chromosome 2 ParA (ParA2vc),stoichiometry N,2
